Experiment [1] deals with MM cell lines (ARP-1, ARK-B, U266, 8226/Dox, MM-1S, MM-RL, NCI-H929, RMPI-8266). The experiment is described as follows: Cell proliferation (viability) assays of MM cell lines. As to conditions: all eight cell lines, at one or more concentrations (0.5, 1, 2 or 4 μg/ml); 48 hours; P<0.05; magnitude slight. Type of experiment: cell-based, human. As to the method:
EXAMPLE 3 illustrates Gal-3C inhibits proliferation of MM cells. Cell Proliferation (Viability) Assays. Cell proliferation was assessed with a ViaLight Plus Cell Proliferation and Cytotoxicity BioAssay Kit (Lonza, Walkersville, Md., USA) according to the directions of the manufacturer. In brief, myeloma cells were seeded (8,000 per well) in 50 μL of RPMI-1640 with 10% heat-inactivated FBS (growth medium) in 96-well plates. HUVEC cells were seeded (10,000/well) in 50 μl EGM-2 medium in 96-well plates. Gal-3C (2× concentration) in 50 μL of growth medium was added to triplicate wells and the plate kept at the CO2 incubator at 37° C. for 48 hour. For the ViaLight assay, 50 μL of lysis buffer was added to each well, the plate was incubated for 10 minutes, after which 50 μL of cell lysate from each well was transferred to a solid white Lumitrac-200 plate and 50 μL of reconstituted AMR Plus was added. Luminescence was measured with a 1-s integrated setting in a Berthold luminometer after 2 minutes. […] Fluorescence intensity was measured at 590-nm on a Polarstar Galaxy (BMG Labtech, Cary, N.C.) microplate reader. The blank (growth media with 10 μl Alamar Blue) was subtracted from the raw fluorescence to obtain adjusted fluorescence readings. Triplicate data points were analyzed and the data shown are representative of 3 or more studies. […]

Experiment [2] relates to NF-kB (serine 529 phosphorylated p65 subunit). The experiment is described as follows: Quantification of NF-kappaB activation by flow cytometry in U266 cells. As to conditions: 48 hours. The format is cell-based, human. As to the method: Quantification of NF-kappaB Activation by Flow Cytometry. For measurement of NF-kB activation, 200×10^3 cells were fixed with 2% PFA in ice-cold PBS for 30 minutes. After removal of PFA, cells were permeabilized with 0.3% saponin in PBS on ice for 15 minutes, then washed and resuspended in 50 μL PBS supplemented with 1% BSA. PE-labeled anti-phosphorylated serine 529 p65 antibody (BD Biosciences, San Jose, Calif., USA) or isotype control (final dilution, 1:20) and allowed to incubate on ice in the dark for 30 minutes. Before flow-cytometric analysis cells were washed 3 times in 1-mL cold PBS with 1% BSA.
FIG. 8A is a dot-plot of NF-kB activation in U266 cells. After 48 hours in the presence of indicated treatments, the levels of active NF-KB (serine 529 phosphorylated p65 subunit) were evaluated in U266 cells by flow cytometry.

B1: Gal-3C: N-terminally truncated human galectin-3 consisting of 143 carboxy-terminal amino acid residues, SEQ ID NO: 1 (protein)
chain: GAPAGPLIVPYNLPLPGGVVPRMLITILGTVKPNANRIALDFQRGNDVAFHFNPRFNENNRRVIVCNTKLDNNWGREERQSVFPFESGKPFKIQVLVEPDHFKVAVNDAHLLQYNHRVKKLNEISKLGISGDIDITSASYTMI
As to B1, in experiment [1], the “proliferation of MM cells” value is “significantly inhibited”. The “NF-kB activation (phosphorylated active form)” value in experiment [2] is given as “did not have a significant effect”.

Values taken from patent US9744212B2, “Galectin-3C combination therapy for human cancer” (Texas Tech University System, priority 2011, dated 2017).
